# Data as given in patent US20220160842A1, “METHOD OF TREATING INFECTIVE ENDOCARDITIS” (priority 2019, published 2022).
# Several values for one entry are separate records, joined by “and”; a condition that tells them apart may be missing. Equal values may be shown once. Read-outs that look alike come from different tables or passages of the source.
# B1: CF-301: anti-staphylococcal lysin encoded within a prophage of the Streptococcus suis genome, SEQ ID NO: 2 with or without initial methionine (protein, listed as Streptococcus suis)
# chain: MTTVNEALNNVRAQVGSGVSVGNGECYALASWYERMISPDATVGLGAGVGWVSGAIGDTISAKNIGSSYNWQANGWTVSTSGPFKAGQIVTLGATPGNPYGHVVIVEAVDGDRLTILEQNYGGKRYPVRNYYSAASYRQQVVHYITPPGTVAQSAPNLAGSRSYRETGTMTVTVDALNVRRAPNTSGEIVAVYKRGESFDYDTVIIDVNGYVWVSYIGGSGKRNYVATGATKDGKRFGNAWGTFK
# Columns and labels:
# S. haemolyticus = test: MIC by broth microdilution; format: cell-based, Staphylococcus haemolyticus; details: S. haemolyticus, N=36
# Method: (§1) Minimal inhibitory concentrations (MICs) of exebacase against staphylococci were determined by broth microdilution (BMD) using a nonstandard antimicrobial susceptibility testing (AST) medium comprised of cation-adjusted Mueller Hinton broth (caMHB) supplemented with horse serum (Sigma Aldrich) and dithiothreitol (DTT; Sigma Aldrich) to final concentrations of 25% and 0.5 mM, respectively. This medium, referred to as caMHB-HSD, is approved for use in exebacase AST by the Clinical and Laboratory Standards Institute (CLSI) (CLSI. 2017, Jan. 16-17. AST Subcommittee Working Group Meetings and Plenary. AST Meeting Files & Resources, clsi.org/education/microbiology/ast/ast-meeting-files-resources/. Additional supplementation with 2.5% lysed red blood cells (Remel™, ThermoFisher) was included for analyses of streptococcal isolates, as recommended by CLSI. See CLSI, 2015. Methods for Dilution Antimicrobial Susceptibility Tests for Bacteria That Grow Aerobically, 10th Edition. Clinical and Laboratory Standards Institute, Wayne, Pa.
# (§2) Daptomycin (Sigma Aldrich) and vancomycin hydrochloride (Sigma Aldrich) were tested following the reference BMD method for each. See CLSI. 2015. Methods for Dilution Antimicrobial Susceptibility Tests for Bacteria That Grow Aerobically, 10th Edition. Clinical and Laboratory Standards Institute, Wayne, Pa.
# all staphylococci tested = test: MIC by broth microdilution; format: cell-based
# Method: as §2
# S. anginosus = test: MIC by broth microdilution; format: cell-based, Streptococcus anginosus; details: S. anginosus (viridans), N=10
# Method: as §1, §2
# MRSA strain MW2 = test: Infective endocarditis rabbit model, CF-301 in series with daptomycin (Example 2); format: in vivo, rabbits
# Method: The rational for selection of the daptomycin dose is as follows. Daptomycin pilot dose-response experiments were performed over a range from 1 mg/kg to 10 mg/kg, administered intravenously, once daily for 4 days in the infective endocarditis rabbit model described below, which was caused by the MRSA strain, MW2. FIG. 2 depicts data for individual animals, plotted as treatment regimen versus log10 CFU/g tissue (mean±SEM are shown). From these studies, a daptomycin dose-response was defined. […] In the rabbit infective endocarditis model, a daptomycin-alone dose of 4 mg/kg administered intravenously provided about 0.25 to 1.45 log10 reduction in bacterial burden compared to vehicle-treated controls.
# A well-described indwelling transcarotid artery-to-left ventricle catheter-induced model of aortic valve infective endocarditis was used in rabbits. See Xiong et al., 2011, AAC, 55:P5325-5330. At 48 hours after catheter placement, infective endocarditis was induced by intravenous inoculums of about 2×10^5 CFU (the induction of ID95 of MRSA strain MW2 in this model). […] Daptomycin administration was continued once a day for 4 days. At 24 hours after the last dose of daptomycin, animals were humanely euthanized and cardiac vegetations, kidneys, and spleens were sterilely removed and quantitatively cultured. Bacterial density for each organ for the different treatment groups were calculated as mean log10 CFU/g of tissue (±95% confidence interval).
# S. epidermidis = test: MIC by broth microdilution; format: cell-based, Staphylococcus epidermidis; details: N=52
# Method: as §1, §2
# Staphylococcus hominis = test: MIC by broth microdilution; format: cell-based; details: n=2 strains, listed as exebacase
# Method: as §1
# S. pseudintermedius = test: MIC by broth microdilution; format: cell-based, Staphylococcus pseudintermedius; details: each of n=6 isolates
# Method: as §1
# S. sciuri = test: MIC by broth microdilution; format: cell-based, Staphylococcus sciuri; details: n=3 isolates
# Method: as §1
# S. simulans = test: MIC by broth microdilution; format: cell-based, Staphylococcus simulans; details: n=1 isolate
# Method: as §1
# S. hyicus = test: MIC by broth microdilution; format: cell-based, Staphylococcus hyicus; details: n=1 isolate
# Method: as §1
# S. intermedius = test: MIC by broth microdilution; format: cell-based, Streptococcus intermedius; details: S. intermedius (viridans), N=10
# Method: as §1, §2
# [1] = system: S. aureus bacteremia/endocarditis; test: Phase II clinical study, CF-301 plus standard of care antibiotics; format: in vivo, human
# Method: These 116 patients constituted the microbiological intent to treat (mITT) population of a Phase II clinical study and was the primary efficacy analysis population. The primary efficacy endpoint was the clinical responder rate (CRR) at Day 14. Diagnosis and clinical outcomes were determined by a blinded Adjudication Committee.
# [2] = healthy subjects, estimated previously; cited from earlier work
# [3] = CF-301 0.09 mg/kg 1 hour prior to the initial dose of DAP 4 mg/kg IV QD x 4 days
# [4] = CF-301 0.09 mg/kg 2 hours after the initial dose of DAP 4 mg/kg IV QD x 4 days
# [5] = CF-301 0.09 mg/kg 2 hours prior to the initial dose of DAP 4 mg/kg IV QD x 4 days
# [6] = CF-301 0.09 mg/kg 4 hours after the initial dose of DAP 4 mg/kg IV QD x 4 days
# [7] = CF-301 0.09 mg/kg 4 hours prior to the initial dose of DAP 4 mg/kg IV QD x 4 days
# [8] = CF-301 0.09 mg/kg immediately after the initial dose of DAP 4 mg/kg IV QD x 4 days
molecule,measurement,setting,value
"CCCCCCCCCC(=O)N[C@@H](Cc1c[nH]c2ccccc12)C(=O)N[C@H](CC(N)=O)C(=O)N[C@@H](CC(=O)O)C(=O)N[C@@H]1C(=O)NCC(=O)N[C@@H](CCCN)C(=O)N[C@@H](CC(=O)O)C(=O)N[C@H](C)C(=O)N[C@@H](CC(=O)O)C(=O)NCC(=O)N[C@H](CO)C(=O)N[C@@H]([C@H](C)CC(=O)O)C(=O)N[C@@H](CC(=O)c2ccccc2N)C(=O)O[C@@H]1C [DAP, Daptomycin]",MIC Range,S. haemolyticus,0.25 to 2 µg/mL
same,MIC50,"S. haemolyticus; Staphylococcus haemolyticus, read-out: MIC50",0.5 µg/mL
same,MIC90,"S. haemolyticus; Staphylococcus haemolyticus, read-out: MIC90",1 µg/mL
same,MIC Range,all staphylococci tested,0.125 to 2 µg/mL
same,MIC Range,S. anginosus,0.25 to 0.5 µg/mL
same,MIC50,"S. anginosus; Streptococcus anginosus, read-out: MIC50",0.5 µg/mL
same,MIC90,"S. anginosus; Streptococcus anginosus, read-out: MIC90",0.5 µg/mL
same,bacterial burden remaining in treated animals,MRSA strain MW2; daptomycin alone 4 mg/kg intravenously,5-7 log10
same,reduction in bacterial burden compared to vehicle-treated controls,"MRSA strain MW2; daptomycin alone 4 mg/kg intravenously, once daily for 4 days, pilot dose-response",0.25 to 1.45 log10
B1,MIC50,S. epidermidis,0.5 µg/mL
same,MIC90,S. epidermidis,0.5 µg/mL
same,MIC Range,S. epidermidis,0.125 to 2 µg/mL
same,MIC50,S. haemolyticus,0.5 µg/mL
same,MIC90,S. haemolyticus,1 µg/mL
same,MIC Range,S. haemolyticus,0.25 to 2 µg/mL
same,MIC,Staphylococcus hominis,0.125 µg/mL and 0.25 µg/mL
same,MIC,S. pseudintermedius,0.25 µg/mL
same,MIC,S. sciuri,2 µg/mL
same,MIC,S. simulans,0.125 µg/mL
same,MIC,S. hyicus,0.25 µg/mL
same,MIC50,S. anginosus,32 µg/mL
same,MIC90,S. anginosus,64 µg/mL
same,MIC Range,S. anginosus,1 to 64 µg/mL
same,MIC50,S. intermedius,0.25 µg/mL
same,MIC90,S. intermedius,0.25 µg/mL
same,MIC Range,S. intermedius,0.06 to 0.5 µg/mL
same,"MRSA density, Mean Log10 CFU/g tissue ± STD, Kidneys",MRSA strain MW2; [3],3.53 ± 0.59 Log10 CFU/g tissue
same,"MRSA density, Mean Log10 CFU/g tissue ± STD, Spleen",MRSA strain MW2; [3],3.55 ± 0.74 Log10 CFU/g tissue
same,"MRSA density, Mean Log10 CFU/g tissue ± STD, Vegetation",MRSA strain MW2; [3],4.16 ± 0.82 Log10 CFU/g tissue
same,"MRSA density, Mean Log10 CFU/g tissue ± STD, Kidneys",MRSA strain MW2; [4],2.29 ± 0.87 Log10 CFU/g tissue
same,"MRSA density, Mean Log10 CFU/g tissue ± STD, Spleen",MRSA strain MW2; [4],2.23 ± 1.09 Log10 CFU/g tissue
same,"MRSA density, Mean Log10 CFU/g tissue ± STD, Vegetation",MRSA strain MW2; [4],2.25 ± 1.39 Log10 CFU/g tissue
same,"MRSA density, Mean Log10 CFU/g tissue ± STD, Kidneys",MRSA strain MW2; [5],3.48 ± 0.47 Log10 CFU/g tissue
same,"MRSA density, Mean Log10 CFU/g tissue ± STD, Spleen",MRSA strain MW2; [5],3.31 ± 0.57 Log10 CFU/g tissue
same,"MRSA density, Mean Log10 CFU/g tissue ± STD, Vegetation",MRSA strain MW2; [5],3.54 ± 0.68 Log10 CFU/g tissue
same,"MRSA density, Mean Log10 CFU/g tissue ± STD, Kidneys",MRSA strain MW2; [6],3.78 ± 0.51 Log10 CFU/g tissue
same,"MRSA density, Mean Log10 CFU/g tissue ± STD, Spleen",MRSA strain MW2; [6],3.49 ± 0.33 Log10 CFU/g tissue
same,"MRSA density, Mean Log10 CFU/g tissue ± STD, Vegetation",MRSA strain MW2; [6],4.31 ± 0.89 Log10 CFU/g tissue
same,"MRSA density, Mean Log10 CFU/g tissue ± STD, Kidneys",MRSA strain MW2; [7],2.97 ± 0.32 Log10 CFU/g tissue
same,"MRSA density, Mean Log10 CFU/g tissue ± STD, Spleen",MRSA strain MW2; [7],3.18 ± 0.35 Log10 CFU/g tissue
same,"MRSA density, Mean Log10 CFU/g tissue ± STD, Vegetation",MRSA strain MW2; [7],3.45 ± 0.63 Log10 CFU/g tissue
same,"MRSA density, Mean Log10 CFU/g tissue ± STD, Kidneys",MRSA strain MW2; [8],2.77 ± 0.65 Log10 CFU/g tissue
same,"MRSA density, Mean Log10 CFU/g tissue ± STD, Spleen",MRSA strain MW2; [8],2.60 ± 0.17 Log10 CFU/g tissue
same,"MRSA density, Mean Log10 CFU/g tissue ± STD, Vegetation",MRSA strain MW2; [8],3.23 ± 0.36 Log10 CFU/g tissue
same,MRSA densities in all three target tissues as compared to the controls and daptomycin alone,"MRSA strain MW2; single dose of CF-301 added to daptomycin regimen, all time-points tested",significantly reduced
same,hypersensitivity,[1]; CF-301 treatment group,no reports of hypersensitivity
same,incidence of treatment emergent adverse events (TEAEs),[1]; CF-301 treatment group,88.9%
same,serious TEAEs,[1]; CF-301 treatment group,47.2%
same,CRR higher than in patients treated with standard of care antibiotics alone,[1]; MRSA-infected patients,about 40%
same,CRR,"[1]; MRSA-infected patients, CF-301 and standard of care antibiotics",74.10%
same,tolerability,[1]; addition of CF-301 to a standard of care antibiotic regimen,well-tolerated
same,died,[1]; from study drug administration through 28 days after the end of SOC antibiotic treatment,19.4%
same,clinical responder rate (CRR) at Day 14,"[1]; mITT population, single two hour infusion of CF-301 plus SOC antibiotics",70.4%
same,CRR,[1]; patients with bacteremia alone,81.8%
same,CRR,[1]; subset with bacteremia/right-sided endocarditis,80%
same,effect of age on AUC0-24 or Cmax,covariate on peripheral clearance,less than 4%
same,CL lower than in healthy subjects,patients vs healthy subjects,40%
same,Vd lower than in healthy subjects,patients vs healthy subjects,17%
same,fold higher AUC0-24 or Cmax than patients with normal renal function,"patients with moderate and severe renal impairment, expected from PPK model",1.3 to 2 fold
same,Total volume distribution,"patients, PPK model",20.2 L
same,central compartment (Vc),"patients, PPK model, RSE 8.2%",4.5 L
same,Clearance,"patients, three-compartment PPK model, RSE 5.5%",4.2 Liters (L)/hour (hr)
same,CL,[2],7.1 L/h
same,volume distribution (Vd),[2],27.7 L
